US9902783B2, “Antibodies and pharmaceutical compositions containing same useful for inhibiting activity of metalloproteins” (Yeda Research and Development Co. Ltd., priority 2007, dated 2018)

How the values were obtained:
MMP-7 (matrilysin) = target: T1, MMP-7 (matrilysin) (Homo sapiens, UniProt P09237); assay: inhibition assay with fluorogenic peptide substrate, MMP-7; assay type: biochemical; conditions: mAb concentrations of up to 30 μM
T1 sequence (P09237 95-267): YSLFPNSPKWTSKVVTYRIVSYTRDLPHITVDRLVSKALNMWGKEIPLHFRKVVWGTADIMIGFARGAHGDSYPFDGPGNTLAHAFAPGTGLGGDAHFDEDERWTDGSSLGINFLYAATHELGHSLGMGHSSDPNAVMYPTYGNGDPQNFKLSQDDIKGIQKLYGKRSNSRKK
Description: To explore the selectivity of 6C6, its reactivity was tested toward different matrix metalloproteinase subgroups including matrilysin (MMP7), membrane type MMP (MT1-MMP) and related disintegrin (ADAMs) tumor necrosis factor-α-converting enzyme (TACE). The core structures of these enzymes, are highly similar, varying mostly within the peripheral loops. Specifically the zinc-histidine scaffold is well conserved, showing a consensus helix followed by a loop that serves as a scaffold for the three histidine residues that coordinate the catalytic zinc ion (FIG. 13).
Similar inhibition assays were performed with appropriate flourogenic peptide substrates. […] Sequence variations, mostly within the peripheral loops dictate differences in the extent of exposure of the zinc-histidine motif, in the shape of the active site and its surface electrostatic may account for this selective inhibitory pattern.

MMP9 = MMP9 (Homo sapiens, UniProt P14780); assay: cleavage of mAb by MMP-9 on overnight incubation; conditions: overnight incubations with 30 μM MMP9
Pro-MMP-2 = target: T2, Pro-MMP-2 (Homo sapiens, UniProt P08253); assay type: binding
T2 sequence (P08253 30-660 limits assumed): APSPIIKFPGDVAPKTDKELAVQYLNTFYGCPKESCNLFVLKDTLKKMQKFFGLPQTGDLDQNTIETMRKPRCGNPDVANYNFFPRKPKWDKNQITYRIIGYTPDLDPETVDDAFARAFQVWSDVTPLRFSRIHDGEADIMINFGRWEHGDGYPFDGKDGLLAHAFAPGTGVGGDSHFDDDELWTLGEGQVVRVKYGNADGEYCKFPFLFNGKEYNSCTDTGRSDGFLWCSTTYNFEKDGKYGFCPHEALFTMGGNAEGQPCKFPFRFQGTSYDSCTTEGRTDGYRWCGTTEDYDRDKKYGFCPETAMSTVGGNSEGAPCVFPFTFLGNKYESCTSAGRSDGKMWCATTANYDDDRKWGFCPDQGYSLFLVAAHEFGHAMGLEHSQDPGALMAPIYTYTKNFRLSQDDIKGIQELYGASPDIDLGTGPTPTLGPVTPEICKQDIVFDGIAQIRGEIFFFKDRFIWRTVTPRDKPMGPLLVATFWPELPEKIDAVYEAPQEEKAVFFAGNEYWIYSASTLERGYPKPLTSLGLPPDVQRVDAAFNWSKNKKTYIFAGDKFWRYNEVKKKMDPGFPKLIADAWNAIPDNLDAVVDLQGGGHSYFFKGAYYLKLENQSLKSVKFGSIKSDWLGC

Pro-MMP-9 = Pro-MMP-9 (Homo sapiens, UniProt P14780); assay type: binding
[1] = target: T3, Heme group within Myoglobin (Homo sapiens, UniProt P02144); assay: cross reactivity, competitive ELISA and immuno affinity assay, Myoglobin; assay type: binding
T3 sequence (P02144 1-154): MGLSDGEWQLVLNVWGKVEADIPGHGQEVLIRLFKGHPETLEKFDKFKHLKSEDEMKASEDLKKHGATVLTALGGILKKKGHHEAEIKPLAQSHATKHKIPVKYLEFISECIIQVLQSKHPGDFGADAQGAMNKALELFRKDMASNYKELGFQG
Description: (§1) The selectivity of anti CoTCPP and anti Imisdp was further challenged, by testing their cross reactivity with non related zinc dependent enzymes—Carbonic Anhydrase (CA) and brockii alcohol dehydrogenase (TbADH). Similar to active MMPs CA contains a zinc ion that is tetrahedraly coordinated to three histidine residues and a water molecule, TbADH contains a catalytic zinc ion that is tetraheadrally coordinated to four different amino acid residues, histidine, cysteine, aspartate and glutamate. […] Anti CoTCPP mAb was also tested for its cross reactivity with related physiological porphyrins such as the Heme group within Myoglobin and Hemoglobin and vitamin.

TACE = TACE (Homo sapiens, UniProt P78536); assay: immuno affinity binding assay, TACE; conditions: purified enzyme
Description: MAbs (10 μg) were incubated with anti mouse IgG Agarose beads (Sigma) overnight at 4° C. in PBS. After washing unbound antibody, purified Pro-MMP-2, Pro-MMP-9 MMP-2 catalytic domain, MT1 catalytic domain or TACE (2 μg), were added following 2 h incubation at RT. The beads were collected by centrifugation and washed three times with PBS. The proteins that remained bound to the beads were eluted with SDS sample buffer, fractionated by SDS-PAGE, and detected by staining with Coomassie blue.

MMP-2 = MMP-2 (Mus musculus, UniProt P33434); assay: kinetic assay with fluorogenic peptide substrate, MMP-2; assay type: biochemical, human
[2] = target: T4, full length native MMP-2 secreted by HT1080 cells (Homo sapiens, UniProt P08253); assay: immunoprecipitation of HT1080 conditioned medium and western blot; assay type: binding; conditions: HT1080 conditioned medium, not activated
T4 construct: full length native MMP-2 secreted by human fibrosarcoma (HT1080) cell cultures; endogenous in cells; host or cells: HT1080 human fibrosarcoma cells, conditioned medium
T4 sequence (P08253 30-660): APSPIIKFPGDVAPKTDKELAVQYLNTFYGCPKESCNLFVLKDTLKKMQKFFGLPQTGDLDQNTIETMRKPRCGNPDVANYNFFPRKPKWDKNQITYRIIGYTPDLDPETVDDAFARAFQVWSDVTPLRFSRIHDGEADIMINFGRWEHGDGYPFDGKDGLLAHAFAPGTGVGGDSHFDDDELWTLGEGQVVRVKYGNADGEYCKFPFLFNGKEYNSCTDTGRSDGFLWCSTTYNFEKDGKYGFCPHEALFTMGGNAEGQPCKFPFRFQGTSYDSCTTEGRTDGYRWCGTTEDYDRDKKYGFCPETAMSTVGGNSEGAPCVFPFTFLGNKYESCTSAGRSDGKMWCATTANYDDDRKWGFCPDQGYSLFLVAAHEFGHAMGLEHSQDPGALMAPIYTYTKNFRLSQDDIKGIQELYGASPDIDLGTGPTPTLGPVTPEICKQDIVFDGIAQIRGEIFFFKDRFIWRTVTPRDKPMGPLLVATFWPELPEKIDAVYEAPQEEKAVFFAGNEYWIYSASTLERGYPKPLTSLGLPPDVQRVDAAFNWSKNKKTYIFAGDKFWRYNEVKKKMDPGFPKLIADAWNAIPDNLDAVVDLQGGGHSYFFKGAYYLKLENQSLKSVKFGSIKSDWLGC
Description: HT1080 cells were seeded in petri dishes. After reaching 80% confluence, the medium (DMEM supplemented with 10% FCS, nonessential amino acids, penicillin, streptomycin, sodium pyruvate, and L-glutamine) was changed to serum free medium (without FCS). Following another 24 h of incubation, conditioned medium (CM) was harvested from the adherent cells and concentrated using Millipore Centricon-10 (Bedford, Mass.). Concentrated supernatants were used for immunoprecipitations. CM was incubated with anti-1 (CoTCPP) mAb (15 μg/ml) overnight at 4° C. […] Beads were washed 3 times with PBS, suspended in SDS sample buffer, and heated to 95° C. for 3 min Immunoprecipitates were recovered by centrifugation and subjected to SDS/PAGE. After separation, proteins were transferred to nitrocellulose (NC) membranes and probed with anti-MMP-2 antibody.
To activate ProMMP-2 produced by HT1080 cells, 1 mM of 4-aminophenyl mercuric acetate (APMA) was added to the concentrated CM followed by 6 h incubation in 37° C. After activation, the CM was dialyzed (×3) against PBS at 4° C., to remove APMA Immunoprecipitation with the activated medium was performed as described above.

[3] = target: Heme group within Hemoglobin (Homo sapiens, UniProt P68871+P69905); assay: cross reactivity, competitive ELISA and immuno affinity assay, Hemoglobin; assay type: binding
Description: as §1

TACE, sequence (P78536 215-824, species assumed): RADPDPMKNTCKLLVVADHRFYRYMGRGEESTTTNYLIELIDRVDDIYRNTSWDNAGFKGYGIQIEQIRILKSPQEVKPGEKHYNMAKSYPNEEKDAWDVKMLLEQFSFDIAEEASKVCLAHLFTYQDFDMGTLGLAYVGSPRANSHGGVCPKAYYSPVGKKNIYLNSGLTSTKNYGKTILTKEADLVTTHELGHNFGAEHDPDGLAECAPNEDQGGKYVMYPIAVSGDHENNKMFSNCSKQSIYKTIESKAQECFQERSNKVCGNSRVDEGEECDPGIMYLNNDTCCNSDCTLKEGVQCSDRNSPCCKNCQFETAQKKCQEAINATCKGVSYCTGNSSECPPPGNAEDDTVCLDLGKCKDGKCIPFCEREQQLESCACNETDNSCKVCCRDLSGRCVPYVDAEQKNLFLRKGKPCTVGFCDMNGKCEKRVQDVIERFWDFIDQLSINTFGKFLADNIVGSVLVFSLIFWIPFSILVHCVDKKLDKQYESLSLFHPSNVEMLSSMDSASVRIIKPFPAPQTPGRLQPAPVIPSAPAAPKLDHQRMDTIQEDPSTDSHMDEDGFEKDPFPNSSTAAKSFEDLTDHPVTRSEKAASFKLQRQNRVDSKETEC
MMP9, sequence (P14780 94-707): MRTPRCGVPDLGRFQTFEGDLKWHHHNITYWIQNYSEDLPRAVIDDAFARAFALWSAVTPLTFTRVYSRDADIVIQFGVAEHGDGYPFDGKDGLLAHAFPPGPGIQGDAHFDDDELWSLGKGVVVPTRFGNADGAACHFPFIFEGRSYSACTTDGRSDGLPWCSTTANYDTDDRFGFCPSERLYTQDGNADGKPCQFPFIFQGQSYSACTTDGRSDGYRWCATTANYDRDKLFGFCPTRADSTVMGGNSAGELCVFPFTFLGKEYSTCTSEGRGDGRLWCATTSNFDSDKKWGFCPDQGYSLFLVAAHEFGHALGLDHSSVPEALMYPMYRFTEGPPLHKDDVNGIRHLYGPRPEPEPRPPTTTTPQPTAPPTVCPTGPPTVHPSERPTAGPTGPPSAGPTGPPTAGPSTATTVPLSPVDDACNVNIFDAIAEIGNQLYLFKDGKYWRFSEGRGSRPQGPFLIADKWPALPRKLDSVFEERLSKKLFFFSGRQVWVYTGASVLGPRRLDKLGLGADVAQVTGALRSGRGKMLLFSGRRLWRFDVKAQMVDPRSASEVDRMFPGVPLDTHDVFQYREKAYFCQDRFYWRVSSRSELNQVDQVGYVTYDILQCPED
MMP-2, sequence (P33434 110-467): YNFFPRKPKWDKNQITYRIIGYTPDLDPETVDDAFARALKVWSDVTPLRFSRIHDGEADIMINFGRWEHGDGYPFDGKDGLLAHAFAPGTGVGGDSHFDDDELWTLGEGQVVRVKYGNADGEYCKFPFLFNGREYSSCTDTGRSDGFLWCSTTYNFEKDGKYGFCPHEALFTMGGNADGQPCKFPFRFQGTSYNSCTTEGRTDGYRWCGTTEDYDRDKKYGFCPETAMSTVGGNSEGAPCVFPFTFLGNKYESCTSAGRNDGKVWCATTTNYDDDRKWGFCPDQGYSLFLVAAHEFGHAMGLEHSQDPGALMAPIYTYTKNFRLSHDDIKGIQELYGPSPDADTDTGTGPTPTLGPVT
Pro-MMP-9, sequence (P14780 20-707 limits assumed): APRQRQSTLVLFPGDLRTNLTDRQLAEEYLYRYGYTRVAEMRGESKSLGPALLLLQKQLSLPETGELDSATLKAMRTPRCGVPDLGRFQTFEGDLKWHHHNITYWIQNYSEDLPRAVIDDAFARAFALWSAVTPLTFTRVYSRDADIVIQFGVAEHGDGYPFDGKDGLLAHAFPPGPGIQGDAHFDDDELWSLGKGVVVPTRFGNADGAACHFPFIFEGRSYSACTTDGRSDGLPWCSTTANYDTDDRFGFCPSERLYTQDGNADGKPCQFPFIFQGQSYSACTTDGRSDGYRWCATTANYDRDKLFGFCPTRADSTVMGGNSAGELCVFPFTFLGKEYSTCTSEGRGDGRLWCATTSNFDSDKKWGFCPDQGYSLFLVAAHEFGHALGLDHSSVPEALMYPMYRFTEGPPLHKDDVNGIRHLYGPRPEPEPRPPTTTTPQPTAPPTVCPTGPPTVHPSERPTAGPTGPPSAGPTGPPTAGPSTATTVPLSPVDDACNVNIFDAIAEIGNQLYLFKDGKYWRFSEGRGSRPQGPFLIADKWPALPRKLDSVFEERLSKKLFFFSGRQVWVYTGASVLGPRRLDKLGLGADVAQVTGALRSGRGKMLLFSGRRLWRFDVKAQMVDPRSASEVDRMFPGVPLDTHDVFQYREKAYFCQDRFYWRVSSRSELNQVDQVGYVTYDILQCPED
Heme group within Hemoglobin, sequence (P69905 2-142 limits assumed): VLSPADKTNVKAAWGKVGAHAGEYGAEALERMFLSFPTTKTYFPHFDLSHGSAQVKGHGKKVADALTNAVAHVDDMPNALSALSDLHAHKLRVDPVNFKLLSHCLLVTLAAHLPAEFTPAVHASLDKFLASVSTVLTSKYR
Heme group within Hemoglobin, sequence (P68871 2-147 limits assumed): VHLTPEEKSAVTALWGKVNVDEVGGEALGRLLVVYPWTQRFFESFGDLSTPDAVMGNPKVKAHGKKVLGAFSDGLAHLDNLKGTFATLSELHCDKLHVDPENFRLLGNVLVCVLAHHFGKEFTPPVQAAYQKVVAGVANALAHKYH

B1: 6C6: monoclonal antibody, IgG2a, raised against the hapten Imisdp; MMP-2 and MMP-9 inhibitory; SEQ ID NO: 1 (protein)
chain: CMETTQTPLSLPVSLGDQASISCRSSQSIVHSNGNTFLEWYLQKPGQSPKLLIYKVSNCRFSGVPDRFSGSGSGTDFTLKISRVEAEDLGVYYCFQASHVPPTFGGG
modifications: 6c6 mAb light chain
- inhibition of MMP-7 (MMP-7 (matrilysin)): neither MMP-7 nor TACE were inhibited to any measurable extent
- cleavage of mAb by MMP-9 (MMP9): not cleaved
- binding to Pro-MMP-2 (Pro-MMP-2): did not bind
- binding to Pro-MMP-9 (Pro-MMP-9): did not bind

B2: 13E11: monoclonal antibody, IgG2b, raised against the hapten CoTCPP (antibody, V domains shown)
VH: EGGGLVQPGGSRKLSCAASGFTFTSFGMHWVRQAPEKGLEWVAYISSGNEIIYYADTVKGRFTISRDNPKNTLFLQMTSLRSEDTAMYYCARNYYRYGFYVMDYWGQG
VL: EIVVTQSPAILSASPGEKVTMTCRASSSVSYMHWYQQKPGSSPKPWIYATSNELASGVPARFSGSGSGTSYSLTISRVEAEDAATYYCQQWISNPLTFGAG
modifications: 13E11 mAb heavy chain; 13E11 mAb light chain
notes: monoclonal antibody, IgG2b, raised against the hapten CoTCPP
- cross reactivity with Myoglobin [1]: No cross was detected
- binding to TACE (TACE): no binding was detected
- mode of inhibition of MMP-2 (MMP-2): competitive inhibitor
- binding to Pro-MMP-2 [2]: but not Pro-MMP-2
- cross reactivity with Hemoglobin [3]: No cross was detected
